Assay results published in patent US20240117073A1, “METHODS OF TREATING NEOPLASTIC ASTROCYTOMA” (Ludwig Institute for Cancer Research Ltd., priority 2009, published 2024).
“Also recorded” adds a separate entry of the source. Where no end group is shown, it is not given here.

Tests used:
[1] = molecular target: amplified / overexpressed wild-type EGFR (human) (UniProt P00533); assay: Scatchard analysis, 125I-labelled 528, A431 cells
de2-7 EGFR (human) = de2-7 EGFR (human) (UniProt P00533); assay: IHC glioblastoma, amplified EGFR with de2-7 EGFR
[2] = molecular target: C271A/C283A-EGFR on Ba/F3 cells (human) (UniProt P00533); assay: FACS median fluorescence, Ba/F3 cells, average for four independent clones, reference M2
[3] = molecular target: amplified / overexpressed wild-type EGFR (human) (UniProt P00533); assay: IHC glioblastoma, amplified EGFR, no de2-7 EGFR
[4] = molecular target: wtEGFR-FLAG on Ba/F3 cells (human) (UniProt P00533); assay: FACS median fluorescence, Ba/F3 cells, reference M2 anti-FLAG
[5] = system: normal human liver sections; assay: immunohistochemistry with mAb175
Protocol: (§1) Bound antibody was detected using the Dako Envision™+HRP detection system as per manufacturer's instructions. Sections were finally rinsed with water, counterstained with hematoxylin and mounted.
The U87MG cell line only expresses modest levels of the wild-type EGFR (FIG. 66A) and has no detectable EGFR autocrine loop.

DU145 xenografts = assay: established xenograft model; type: in vivo, nude mice; details: day 67; 1 mg i.p.
Text: Xenografts were allowed to establish for 18 days before therapy commenced (3 times a week for 3 weeks on days indicated). At this time the average tumor volume was 90 mm^3 (FIG. 68D).

DU145 cells = assay: FACS binding to cell lines; type: cell-based, human
Text: Clearly, mAb806 and mAb175 can recognize only a small proportion of the EGFR on cells in the presence of an autocrine stimulation loop.

xenograft A431 = assay: immunohistochemistry of xenograft sections; design: species or system human
Protocol: (§2) Xenografts were excised and bisected. One half was fixed in 10% formalin/PBS before being embedded in paraffin. Four micron sections were then cut and stained with haematoxylin and eosin (H&E) for routine histological examination. The other half was embedded in Tissue Tek® OCT compound (Sakura Finetek, Torrance, CA), frozen in liquid nitrogen and stored at −80° C. Thin (5 micron) cryostat sections were cut and fixed in ice-cold acetone for 10 min followed by air drying for a further 10 min. Sections were blocked in protein blocking reagent (Lipshaw Immunon, Pittsburgh U.S.A.) for 10 min and then incubated with biotinylated primary antibody (1 mg/ml), for 30 min at room temperature (RT). All antibodies were biotinylated using the ECL™ protein biotinylation module (Amersham, Baulkham Hills, Australia), as per the manufacturer's instructions. After rinsing with PBS, sections were incubated with a streptavidin horseradish peroxidase complex for a further 30 min (Silenus, Melbourne, Australia). Following a final PBS wash the sections were exposed to 3-amino-9-ethylcarbozole (AEC) substrate (0.1 M acetic acid, 0.1 M sodium acetate, 0.02 M AEC (Sigma Chemical Co., St Louis, MO)) in the presence of hydrogen peroxide for 30 min. Sections were rinsed with water and counterstained with hematoxylin for 5 min and mounted.
as §1

xenograft U87MG (native) = assay: immunohistochemistry of xenograft sections; design: species or system human
Protocol: as §2, §1

EGFR fragments = assay: Western blot of GH/EGFR fragment fusion proteins; type: binding, human
Protocol: The day prior to transfection with these fragments, human 293T embryonic-kidney fibroblasts were seeded at 8×10^5 per well in 6-well tissue culture plates containing 2 ml of media. Cells were transfected with 3-4 μg of plasmid DNA complexed with Lipofectamine™ 2000 (Invitrogen) according to the manufacturer's instructions. […] Parallel membranes were probed overnight with mAb 9B11 (1:5000, Cell Signaling Technology, Danvers, Massachusetts) to detect the c-myc epitope. Membranes were washed in TBST, and incubated in blocking buffer containing horseradish peroxidase-conjugated rabbit anti-mouse IgG (Biorad) at a 1:5000 dilution for 2 h at room temperature. Blots were then washed in TBST, and developed using autoradiographic film following incubation with Western Pico Chemiluminescent Substrate (Pierce, Rockford, Illinois).
(§3) Expression of EGFR proteins on the yeast cell surface was performed as previously described (Johns et al., 2004).

[6] = system: EGFR fragments displayed on yeast; assay: yeast surface display of EGFR fragments; type: binding, human
Protocol: as §3
Briefly, transformed colonies were grown at 30° C. in minimal media containing yeast nitrogen base, casein hydrolysate, dextrose, and phosphate buffer pH 7.4, on a shaking platform for approximately one day until an OD600 of 5-6 was reached. Yeast cells were then induced for protein display by transferring to minimal media containing galactose, and incubated with shaking at 30° C. for 24 h. Cultures were then stored at 4° C. until analysis. Raw ascites fluid containing the c-myc monoclonal antibody 9E10 was obtained from Covance (Richmond, CA). 1×10^6 yeast cells were washed with ice-cold FACS buffer (PBS containing 1 mg/ml BSA) and incubated with either anti-c-myc ascites (1:50 dilution), or human EGFR monoclonal antibody (10 μg/ml) in a final volume of 50 μl, for 1 hr at 4° C. The cells were then washed with ice cold FACS buffer and incubated with phycoerythrin-labelled anti-mouse IgG (1:25 dilution), in a final volume of 50 μl for 1 h at 4° C., protected from light. After washing the yeast cells with ice-cold FACS buffer, fluorescence data was obtained with a Coulter Epics XL flow cytometer (Beckman-Coulter), and analyzed with WinMDI cytometry software (J. Trotter, Scripps University). […]

EGFR of A431 cells = EGFR of A431 cells (Homo sapiens, UniProt P00533); assay: ELISA of 806 reactivity in lysate of AG1478 treated cells; type: cell-based; details: increasing amounts of AG1478 (0.5 μM and 5 μM)
A431 xenografts = assay: combination therapy with AG1478, preventative model; type: in vivo, mice; details: 0.1 mg mAb806; 400 μg AG1478
Protocol: AG1478 (4-(3-Chloroanilino)-6,7-dimethoxyquinazoline) is a potent and selective inhibitor of the EGFR kinase versus HER2-neu and platelet-derived growth factor receptor kinase (Calbiochem Cat. No. 658552). […] The results are illustrated in FIG. 12. […] 400 μg AG1478 was administered at 0, 2, 4, 7, 9, and 11 days post xenograft.

[7] = molecular target: EGFR peptide 287-302 (806 peptide epitope) (human); assay: BIAcore, peptide 287-302 immobilised by Pms-Ser coupling
[8] = molecular target: EGFR peptide 287-302 (806 peptide epitope) (human); assay: BIAcore, peptide 287-302 immobilised by thiol coupling
[9] = molecular target: EGFR peptide 287-302 (806 peptide epitope) (human); assay: BIAcore, peptide 287-302 immobilised by amine coupling
[10] = molecular target: T1, EGFR peptide 287-302 (806 peptide epitope) (human, not fully specified (bridges); also: oxidized form in the crystals); assay: BIAcore, immobilised peptide, 200 nM antibody
T1 construct: Immobilised by amine, thiol or Pms-Ser coupling; oxidized form in the crystals
T1 peptide: CGADSYEMEEDGVRKC

xenograft U87MGΔEGFR = assay: immunohistochemistry of xenograft sections; design: species or system human
[11] = molecular target: T2, denatured soluble domain of the EGFR (sEGFR) (Homo sapiens, UniProt P00533); assay: competition ELISA; type: binding; details: after unlabeled blocking antibody
T2 construct: sEGFR is the recombinant extracellular domain (amino acids 1-621) of the wild-type EGFR; made in house; host or cells: CHO cells
Protocol: Briefly, the denatured soluble domain of the EGFR (sEGFR) was coated on to ELISA plates. The unlabeled 124 or 1133 antibodies were then added across the plate in increasing concentrations.

[12] = system: established A431 xenografts; assay: in vivo 806 therapy study; design: species or system BALB/c nude mice; details: 6 x 1 mg IP, versus PBS
Protocol: (§4) To establish xenografts, mice were injected subcutaneously into the right and left inguinal mammary line with 1×10^6 A431 […] cells or 1×10^6 U87MG.de2-7 glioma cells in 100 μl of PBS. Tumor volume (TV) was calculated by the formula [(length×width^2)/2] where length was the longest axis and width the measurement at right angles to length. […] Therapy was administered on days 6, 8, 11, 13, 15 and 18 for A431, and days 4, 6, 8, 11, 13 and 15 for the U87MG.de2-7 cell lines respectively. Mean±SEM tumor volumes until termination of the experiments due to ethical considerations of tumor burden are presented in FIG. 91 for the A431 xenograft until day 25, and in FIG. 92 for U87MG.de2-7 xenografts until day 31.

[13] = system: established U87MG.de2-7 xenografts; assay: in vivo 806 therapy study; design: species or system BALB/c nude mice; details: 6 x 1 mg IP, versus PBS
Protocol: as §4

528 antibody
binding sites per cell (sites per cell) [1]: 2e+06
percent of immunoreactive cells (de2-7 EGFR (human)): > 75%
ratio of antibody binding mAb 528/M2 [2]: 1.08
percent of immunoreactive cells [3]: > 75%
ratio of antibody binding mAb 528/M2 [4]: 1.37

mAb175: murine monoclonal antibody, SEQ ID NO:129 and SEQ ID NO:134
staining [5]: does not bind
mean tumor volume (DU145 xenografts): 815 mm^3
FACS binding (DU145 cells): bind to DU145 cells
immunohistochemical staining (xenograft A431): stains
immunohistochemical staining (xenograft U87MG (native)): does not stain
reactivity with EGFR fragments (EGFR fragments): reacted with both the 274-501 and 282-501 EGFR fragments; also recorded: did not detect fragments commencing at amino acid 290 or 298; also recorded: a 274-501 EGFR fragment with the mAb806 epitope deleted (Δ287-302) was also negative for mAb175 binding
binding to EGFR fragments [6]: recognized the yeast fragment 273-621; also recorded: not to fragments 1-176, 1-294, 294-543, or 475-621; also recorded: binds to the denatured fragment of the 273-621

COc1cc2ncnc(Nc3cccc(Cl)c3)c2cc1OC [AG1478, 4-(3-Chloroanilino)-6,7-dimethoxyquinazoline, reference compound]
mAb806 binding to EGFR in cell lysate (EGFR of A431 cells): significantly increased
tumor volume (A431 xenografts): significant reduction of tumor volume

mAb175 (antibody)
Kd [7]: 35 nM
Kd [8]: 143 nM
Kd [9]: 154 nM

B1: mAb1133 (antibody, mouse IgG2a, V domains shown)
VH: DVQLQGSGPSLVKPSQSLSLTCTVTGYSITSDYAWNWIRQFPGNKLEWMGYISYSGNTRYNPSLRSRISITRDTSKNQFFLQLNSVTTEDTATYYCATAGRGFPYWGQGTLVTVSA
VL: DILMTQSPSSMSVSLGDTVNITCHSSQDINSNIGWLQQKPGKSFKGLIYHGTNLDDGVPSRFSGSGSGADYSLTISSLESEDFADYYCVQYGQFPWTFGGGTKLEIKR
notes: Mouse IgG2a; variable domains only
Binding to mAb806 peptide (RU), maximal [10]: 800 RU
immunohistochemical staining (xenograft U87MGΔEGFR): pos.
Binding of biotin-labeled 806 [11]: None
immunohistochemical staining (xenograft A431): pos. (predominantly

B2: hu806: humanized (veneered) 806 antibody, SEQ ID NO:42 and SEQ ID NO:47 (antibody, V domains shown)
VH: MDWTWRILFLVAAATGVHSQVQLQESGPGLVKPSQTLSLTCTVSGYSISSDFAWNWIRQPPGKGLEWMGYISYSGNTRYQPSLKSRITISRDTSKNQFFLKLNSVTAADTATYYCVTAGRGFPYWGQGTLVTVSS
VL: MDWTWRILFLVAAATGVHSDIQMTQSPSSMSVSVGDRVTITCHSSQDINSNIGWLQQKPGKSFKGLIYHGTNLDDGVPSRFSGSGSGTDYTLTISSLQPEDFATYYCVQYAQFPWTFGGGTKLEIKR
xenograft growth [12]: marked reduction in A431 xenograft growth
xenograft growth [13]: significant reduction in tumor growth by day 20
